The source of these data is the supplement of paper PMC7877785.

± gives the uncertainty stated by the source.

This data set is described as follows: self-splicing fitness, log relative to wild type (ln ratio); higher = more splicing; Tetrahymena group I intron in knt gene, E. coli kanamycin selection, DiMSum; sequences stand for … in CUCUCU…GGAGGGAAAAGUUAUCAGGCAUGCACCUGGUAGCUAGUCUUUAAACCAAUAGAUUGCAUCGGUUUAAAAGGCAAGACCGUCAAAUUGCGGGAAAGGGGUCAACAGCCGUUCAGUACCAAGUCUCAGGGGAAACUUUGAGAUGGCCUUGCAAAGGGUAUGGUAAUAAGCUGACGGACAUGGUCCUAACCACGCAGCCAAGUCCUAAGUCAACAGAUCUUCUGUUGAUAUGGAUGCAGUUCACAGACUAAAUGUCGGUCGGGGAAGAUGUAUUCUUCUCAUAAGAUAUAGUCGGACCUCUCCUUAAUGGGAGCUAGCGGAUGAAGUGAUGCAACACUGGAGCCGCUGGGAACUAAUUUGUAUGCGAAAGUAUAUUGAUUAGUUUUGGAGUACUCGUGGUCG
In a few lines: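 Colonies from six replicate transformations of E. coli BL21(DE3) were pooled and amplicon-sequenced on an Illumina HiSeq 2500. The library placed an intron with all eight P1ex-region nucleotides randomised inside the knt kanamycin-resistance gene on pET-22b(+), and cells grew overnight at 37°C or 30°C on LB agar with or without 25 μg/mL kanamycin (plus 100 μg/mL carbenicillin, 50 μM IPTG, 0.2% rhamnose). Fitness is the DiMSum error-weighted combination of wild-type-normalised replicate fold changes, kanamycin versus none.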

Consider GUUCAGCAAUAUUACGGAGC, for which the “self-splicing fitness (ln)” value reads like this: (30 °C) -2.39 ± 0.32; (37 °C) -1.53 ± 0.42.

As for GAGAAGCAAUAUUACGUGGG, the “self-splicing fitness (ln)” value by setting is: (30 °C) -2.74 ± 0.14; (37 °C) -2.29 ± 0.19.

For the sequence CUUUAGCAAUAUUACGGGCC, the “self-splicing fitness (ln)” value runs as follows: (30 °C) -3.32 ± 0.16; (37 °C) -2.64 ± 0.21.

Regarding UCGAAGCAAUAUUACGUAGA, the “self-splicing fitness (ln)” value is -1.81 ± 0.14 (30 °C) and -0.562 ± 0.15 (37 °C).

In the case of AGUCAGCAAUAUUACGCGUC, the “self-splicing fitness (ln)” value by setting is: (30 °C) -2.65 ± 0.23; (37 °C) -0.977 ± 0.23.

With UGAAAGCAAUAUUACGAGGC, the “self-splicing fitness (ln)” value (30 °C) was -3.66 ± 0.28 and the “self-splicing fitness (ln)” value (37 °C) is -2.36 ± 0.21.

With UAUCAGCAAUAUUACGGCUG, the “self-splicing fitness (ln)” value (30 °C) was -3.56 ± 0.2 and the “self-splicing fitness (ln)” value (37 °C) was -1.78 ± 0.15.

With UACAAGCAAUAUUACGUGGG, the “self-splicing fitness (ln)” value is, setting by setting: (30 °C) -3.82 ± 0.21; (37 °C) -3.3 ± 0.24.

As for CUUAAGCAAUAUUACGUAGC, where the note is “30 °C”, the “self-splicing fitness (ln)” value is -3.71 ± 0.23.

GCAUAGCAAUAUUACGCGUG: the “self-splicing fitness (ln)” value reads like this: (30 °C) -3.46 ± 0.2; (37 °C) -2.64 ± 0.28.

In the case of CCAUAGCAAUAUUACGAGAU, the “self-splicing fitness (ln)” value is -3.81 ± 0.35 (30 °C) and -2.12 ± 0.21 (37 °C).

For UCUCAGCAAUAUUACGGGAG, the “self-splicing fitness (ln)” value was -2.79 ± 0.2 (30 °C) and -1.4 ± 0.16 (37 °C).

AGUAAGCAAUAUUACGUUGA: the “self-splicing fitness (ln)” value reads like this: (30 °C) -3.1 ± 0.23; (37 °C) -2.1 ± 0.24.

Consider CAUAAGCAAUAUUACGGGGA, for which the “self-splicing fitness (ln)” value was -2.02 ± 0.17 (30 °C) and -2.83 ± 0.23 (37 °C).

As to CCUAAGCAAUAUUACGUUGU, the “self-splicing fitness (ln)” value was -3.37 ± 0.16 (30 °C) and -2.15 ± 0.15 (37 °C).

With CGGAAGCAAUAUUACGCCAU, the “self-splicing fitness (ln)” value is, setting by setting: (30 °C) -3.61 ± 0.34; (37 °C) -2.84 ± 0.32.

As for CUCCAGCAAUAUUACGCGUG, the “self-splicing fitness (ln)” value was -2.19 ± 0.075 (30 °C) and -1.29 ± 0.085 (37 °C).

Consider GGCAAGCAAUAUUACGAGGG, for which the “self-splicing fitness (ln)” value (30 °C) is -2.89 ± 0.13 and the “self-splicing fitness (ln)” value (37 °C) was -2.34 ± 0.14.

As to CUAAAGCAAUAUUACGCCUC, the “self-splicing fitness (ln)” value (30 °C) was -3.62 ± 0.21 and the “self-splicing fitness (ln)” value (37 °C) is -1.85 ± 0.27.

GGUCAGCAAUAUUACGCAAC: the “self-splicing fitness (ln)” value by setting is: (30 °C) -0.639 ± 0.11; (37 °C) -0.859 ± 0.17.

Take AAUGAGCAAUAUUACGCCGA: the “self-splicing fitness (ln)” value reads like this: (30 °C) -2.34 ± 0.3; (37 °C) -1.75 ± 0.43.

Consider GGCGAGCAAUAUUACGGCCU, for which the “self-splicing fitness (ln)” value (30 °C) is -2.45 ± 0.23.

In the case of UUCAAGCAAUAUUACGUAAG, the “self-splicing fitness (ln)” value (30 °C) is -1.89 ± 0.074 and the “self-splicing fitness (ln)” value (37 °C) is -0.866 ± 0.077.

Take CAGGAGCAAUAUUACGUAGA: the “self-splicing fitness (ln)” value runs as follows: (30 °C) -3.42 ± 0.28; (37 °C) -1.56 ± 0.21.

For the sequence CGGCAGCAAUAUUACGUUUU, the “self-splicing fitness (ln)” value by setting is: (30 °C) -3.75 ± 0.17; (37 °C) -2.09 ± 0.14.

Turning to AAACAGCAAUAUUACGCGAC, the “self-splicing fitness (ln)” value runs as follows: (30 °C) -2.77 ± 0.21; (37 °C) -1.68 ± 0.14.

As for CCAGAGCAAUAUUACGACCU, the “self-splicing fitness (ln)” value was -2.54 ± 0.23 (30 °C) and -3.29 ± 0.39 (37 °C).

On to CAUGAGCAAUAUUACGUGAU, for which the “self-splicing fitness (ln)” value runs as follows: (30 °C) -2.58 ± 0.14; (37 °C) -2.68 ± 0.2.

Consider AUGGAGCAAUAUUACGGGGC, for which the “self-splicing fitness (ln)” value is, setting by setting: (30 °C) -3.13 ± 0.18; (37 °C) -2.14 ± 0.19.

Turning to AAUAAGCAAUAUUACGCUCG, the “self-splicing fitness (ln)” value is, setting by setting: (30 °C) -0.686 ± 0.14; (37 °C) 0.0576 ± 0.19.

GCCAAGCAAUAUUACGUCCG: the “self-splicing fitness (ln)” value was -2.19 ± 0.33 (30 °C) and -1.6 ± 0.32 (37 °C).

As to CGGCAGCAAUAUUACGGAAA, the “self-splicing fitness (ln)” value was -3.57 ± 0.26 (30 °C) and -2.7 ± 0.18 (37 °C).

For CGCGAGCAAUAUUACGACUC, for the setting “37 °C”, the “self-splicing fitness (ln)” value is -1.14 ± 0.31.

In the case of CACAAGCAAUAUUACGCUAG, the “self-splicing fitness (ln)” value runs as follows: (30 °C) -2.72 ± 0.13; (37 °C) -1.43 ± 0.1.

Turning to UCAUAGCAAUAUUACGCGAC, the “self-splicing fitness (ln)” value (37 °C) is -1.46 ± 0.46.

For the sequence UCAGAGCAAUAUUACGCUAU, the “self-splicing fitness (ln)” value was -3.45 ± 0.48 (30 °C) and -2.08 ± 0.41 (37 °C).

For UGCUAGCAAUAUUACGUCGU, the “self-splicing fitness (ln)” value (30 °C) is -2.15 ± 0.14 and the “self-splicing fitness (ln)” value (37 °C) is -3.03 ± 0.31.

For ACUCAGCAAUAUUACGCCCC, the “self-splicing fitness (ln)” value (30 °C) was -1.48 ± 0.12 and the “self-splicing fitness (ln)” value (37 °C) amounted to 0.148 ± 0.18.

On to AGCAAGCAAUAUUACGUAAU, for which the “self-splicing fitness (ln)” value was -1.99 ± 0.1 (30 °C) and -1.27 ± 0.12 (37 °C).
